Test system: adipose tissue
Assay type: in vivo, human
Excerpt: Thus, by adjusting the single dose of hyaluronidase in the injection composition for topical fat removal of the present invention to 300 IU to 600 IU, the side effects from using the drug are minimized and yet fat removal over a wide area can be carried out using a minimal volume. It has been shown in clinical trials that at a hyaluronidase activity of 300 IU and an injection volume of 1 cc, the diameter of the diffusion range for the injection composition is about 1 cm. Thus, by injecting the composition at narrow intervals between injection points of 0.5 to 2 cm, even fat removal as well as collagen production by skin stimulation can be facilitated.

## hyaluronidase
human, in vivo, sc
  amount at which adipose cells are excessively hydrolyzed, causing concerns about dimpling or subcutaneous bleeding: above 600 IU
Single dose
  minimum amount of hyaluronidase exhibiting efficacy: 300 IU
